# Columns and labels:
# [1] = system: 16D10 antigen on PANC-1 cells; assay: Flow cytometry detection of antigen at the cell surface, PANC-1; format: binding, human
# Procedure: Detection of antigens at the surface of SOJ-6 and PANC-1 cells was carried out by indirect fluorescence under the following conditions: cells were released from culture plates by treatment with a non enzymatic dissociation liquid (Calbiochem) for 15 minutes at 37° C. All subsequent steps were carried out at 4° C. The cells were washed with phosphate buffered saline (PBS), fixed with 2% paraformaldehyde in PBS for 15 minutes, and washed with 1% BSA in PBS for 15 minutes. Antigens were exposed for 2 hours to specific antibodies, washed with PBS, and finally incubated for 45 minutes with appropriate FITC-labeled secondary antibodies. Cells were then washed, resuspended in isoflow buffer, and analyzed on Coulter FACSCalibur device.
# Flow cytometry experiments were carried out to investigate whether the antigen recognized by 16D10 was found on the surface of cells. Results are shown in FIGS. 14 and 15, representing SOJ-6 and PANC-1 cells, respectively. […] In each case, 16D10 binding was compared to a negative control and a control mouse IgM (Sigma).
# [2] = system: SOJ-6 cells; assay: Annexin V / PI apoptosis assay; format: cell-based, human; conditions: antibodies 20 μg/ml, tunicamycin 25 or 50 μg/ml
# Procedure: SOJ-6 cells (20.10^4 cells per well) were seeded onto 24 wells plates 72H before to start the experiment. Cells were incubated either with 20 μg/ml 16D10 IgM, or 20 μg/ml of a further recombinant 16D10 IgG1 antibody which contained the 16D10 variable regions linked fused to a human IgG1 constant region and human kappa light region for the heavy and light chains respectively, 25 μg/ml Tunicamycin or 50 μg/ml Tunicamycin. The AnnexinV/PI stainings were performed after 24H of culture using the AnnexinV-FITC Apoptosis Detection Kit I (BD Pharmingen) according to the manufacturer instructions. Stainings were acquired on a FACScan (Becton Dickinson, San Jose, Calif.) and results were analysed using FlowJo Software.
molecule,measurement,setting,value
"16D10: IgM monoclonal antibody recognizing FAPP/BSDL; producing cells deposited with the CNCM under the number I-3188 (antibody, listed as Mus musculus, V domains shown) VH: QVQLQQSDAELVKPGASVKISCKASGYTFTDHAIHWVKQKPEQGLEWIGYISPGNDVIKFNEKFKGKATLTADKSSSTAYMQLNSLTSEDSAVYFCKRSEGGVFDYWGQGTTLTVS VL: NIMMTQSPSSLAVSAGEKVTMSCKSSQSVLYSSNQKNFLAWYQQKPGQSPKLLIYWASTRESGVPDRFTGSGSGTDFTLTISSVQAEDLAVYYCHQYLSSYTFGGGTKLEIK",binding to antigen on PANC-1 cells,[1],did not bind antigen present on PANC-1 cells
same,apoptosis by Annexin V and Annexin V/PI staining,[2],induced significant levels of apoptosis

# Source: patent US20100124555A1, “Compositions and Methods for Treating Pancreatic Tumors” (UNIVERSITE DE LA MEDITERRANEE, priority 2007, published 2010)
